Reference: paper PMC9482650, “Quantitative fragmentomics allow affinity mapping of interactomes” (Nature Communications, 2022)

Legend:
Experiment in all cases: holdup assay
Design in all cases: key: below the threshold = too weak to quantify, mostly under pKd 3.1 to 4
[1] = target: T1, DLG3_1, Q92796
T1 sequence (Q92796 125-227, limits assumed, looked up): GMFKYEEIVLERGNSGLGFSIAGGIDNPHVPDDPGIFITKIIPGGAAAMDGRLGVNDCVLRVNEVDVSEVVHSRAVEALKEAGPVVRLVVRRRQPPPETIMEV

[2] = target: DLG4_2, P78352
[3] = target: DLG4_3, P78352
[4] = target: FRMPD2_1, Q68DX3
[5] = target: FRMPD2_2, Q68DX3
[6] = target: GOPC, Q9HD26
[7] = target: GRIP2_4, Q9C0E4
[8] = target: HTRA2, O43464
[9] = target: T2, HTRA3, P83110
T2 sequence (P83110 354-453, limits assumed, looked up): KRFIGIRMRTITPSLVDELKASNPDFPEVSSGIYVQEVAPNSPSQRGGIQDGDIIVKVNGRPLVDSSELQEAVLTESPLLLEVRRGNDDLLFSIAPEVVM

[10] = target: IL16_4, Q14005
[11] = target: Inadl_1, Q8NI35
[12] = target: Inadl_6, Q8NI35
[13] = target: Inadl_9, Q8NI35
[14] = target: LAP2, Q96RT1
[15] = target: T3, LIN7B, Q9HAP6
T3 sequence (Q9HAP6 88-185, limits assumed, looked up): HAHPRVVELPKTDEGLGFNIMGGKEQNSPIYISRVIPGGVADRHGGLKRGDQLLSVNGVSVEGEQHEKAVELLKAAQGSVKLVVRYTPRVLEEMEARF

[16] = target: LNX1_1, Q8TBB1
[17] = target: MAGI2_3, Q86UL8
[18] = target: NHERF4_2, Q86UT5
[19] = target: T4, PCLO, Q9Y6V0
T4 sequence (Q9Y6V0 4491-4600, limits assumed, looked up): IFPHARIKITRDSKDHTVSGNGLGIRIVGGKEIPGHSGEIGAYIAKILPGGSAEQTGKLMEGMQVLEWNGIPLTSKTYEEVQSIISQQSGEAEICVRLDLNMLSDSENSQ

[20] = target: PDLIM1, O00151
[21] = target: T5, PDZD2_2, O15018
T5 sequence (O15018 329-429, limits assumed, looked up): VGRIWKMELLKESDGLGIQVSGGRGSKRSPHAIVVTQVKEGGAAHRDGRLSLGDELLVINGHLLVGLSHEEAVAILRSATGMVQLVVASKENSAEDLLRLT

[22] = target: T6, RAPGEF6, Q8TEU7
T6 sequence (Q8TEU7 525-625, limits assumed, looked up): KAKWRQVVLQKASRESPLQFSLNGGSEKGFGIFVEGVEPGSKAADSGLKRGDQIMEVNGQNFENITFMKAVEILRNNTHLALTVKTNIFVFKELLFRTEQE

[23] = target: SCRIB_3, Q14160
[24] = target: T7, SNTG1, Q9NSN8
T7 sequence (Q9NSN8 52-150, limits assumed, looked up): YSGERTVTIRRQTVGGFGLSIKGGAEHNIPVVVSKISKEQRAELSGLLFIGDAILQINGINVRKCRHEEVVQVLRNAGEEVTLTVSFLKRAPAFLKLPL

[25] = target: T8, TIAM2, Q8IVF5
T8 sequence (Q8IVF5 885-986, limits assumed, looked up): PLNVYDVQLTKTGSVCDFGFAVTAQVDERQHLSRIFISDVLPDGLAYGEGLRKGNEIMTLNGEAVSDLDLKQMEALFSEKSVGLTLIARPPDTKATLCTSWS

[26] = target: TJP1_3, Q07157
[27] = target: TJP2_1, Q9UDY2
[28] = target: T9, TX1BP3, O14907
T9 sequence (O14907 10-122, limits assumed, looked up): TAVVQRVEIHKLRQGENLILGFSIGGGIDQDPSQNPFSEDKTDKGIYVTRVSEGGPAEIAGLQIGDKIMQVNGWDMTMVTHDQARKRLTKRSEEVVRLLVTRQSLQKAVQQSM

[29] = plain residues with an end cap or a label only (N-terminal biotin on a linker: ado-ado)
[30] = plain residues with an end cap or a label only (N-terminal biotin on a linker: ahx)

Sequence of PDLIM1, O00151 (O00151 1-87): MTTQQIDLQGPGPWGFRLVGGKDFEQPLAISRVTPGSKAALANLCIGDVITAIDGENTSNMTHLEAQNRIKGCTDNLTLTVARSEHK
Sequence of FRMPD2_2, Q68DX3 (Q68DX3 944-1038): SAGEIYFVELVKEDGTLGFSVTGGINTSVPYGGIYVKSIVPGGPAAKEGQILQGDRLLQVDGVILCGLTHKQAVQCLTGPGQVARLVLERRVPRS
Sequence of LAP2, Q96RT1 (Q96RT1 other isoform, or with tags, fused parts or gaps): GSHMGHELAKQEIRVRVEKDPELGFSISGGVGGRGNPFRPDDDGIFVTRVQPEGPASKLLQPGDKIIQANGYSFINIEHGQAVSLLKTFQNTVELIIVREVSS
Sequence of LNX1_1, Q8TBB1 (Q8TBB1 261-371): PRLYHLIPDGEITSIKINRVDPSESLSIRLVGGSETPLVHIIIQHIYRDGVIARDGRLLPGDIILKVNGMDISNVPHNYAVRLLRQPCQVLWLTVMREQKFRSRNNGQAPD
Sequence of NHERF4_2, Q86UT5 (Q86UT5 220-308): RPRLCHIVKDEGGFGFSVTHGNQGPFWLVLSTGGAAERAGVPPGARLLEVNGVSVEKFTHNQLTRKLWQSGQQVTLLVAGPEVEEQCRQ
Sequence of SCRIB_3, Q14160 (Q14160 999-1103): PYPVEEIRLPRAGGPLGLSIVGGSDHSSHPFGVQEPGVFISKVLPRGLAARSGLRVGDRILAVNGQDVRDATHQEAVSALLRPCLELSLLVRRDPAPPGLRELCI
Sequence of Inadl_9, Q8NI35 (Q8NI35 1530-1615): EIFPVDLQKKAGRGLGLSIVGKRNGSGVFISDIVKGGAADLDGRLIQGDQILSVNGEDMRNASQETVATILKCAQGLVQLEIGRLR
Sequence of GRIP2_4, Q9C0E4 (Q9C0E4 446-548): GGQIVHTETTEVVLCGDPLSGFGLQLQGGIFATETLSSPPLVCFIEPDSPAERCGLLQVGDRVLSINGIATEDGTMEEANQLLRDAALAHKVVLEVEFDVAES
Sequence of DLG4_3, P78352 (P78352 306-403): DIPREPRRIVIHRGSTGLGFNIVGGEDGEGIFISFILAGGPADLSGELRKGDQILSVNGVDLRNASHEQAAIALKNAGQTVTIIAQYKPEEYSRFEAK
Sequence of MAGI2_3, Q86UL8 (Q86UL8 600-682): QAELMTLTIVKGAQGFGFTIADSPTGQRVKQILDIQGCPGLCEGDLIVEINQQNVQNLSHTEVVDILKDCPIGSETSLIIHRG
Sequence of HTRA2, O43464 (O43464 355-458): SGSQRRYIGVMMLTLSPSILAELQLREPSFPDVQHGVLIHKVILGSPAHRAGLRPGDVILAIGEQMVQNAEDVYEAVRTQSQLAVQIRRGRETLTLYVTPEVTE
Sequence of Inadl_1, Q8NI35 (Q8NI35 113-229): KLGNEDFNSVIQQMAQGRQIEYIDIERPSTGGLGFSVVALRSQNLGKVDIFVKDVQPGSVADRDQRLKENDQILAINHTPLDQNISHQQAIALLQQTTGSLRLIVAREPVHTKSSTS
Sequence of FRMPD2_1, Q68DX3 (Q68DX3 770-861): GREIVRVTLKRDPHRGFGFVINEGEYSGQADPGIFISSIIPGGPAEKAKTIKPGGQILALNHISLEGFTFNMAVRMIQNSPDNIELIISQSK
Sequence of DLG4_2, P78352 (P78352 155-259): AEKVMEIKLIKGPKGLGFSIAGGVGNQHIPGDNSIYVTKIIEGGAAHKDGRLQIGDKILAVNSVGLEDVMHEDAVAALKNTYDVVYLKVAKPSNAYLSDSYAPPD
Sequence of TJP1_3, Q07157 (Q07157 416-512): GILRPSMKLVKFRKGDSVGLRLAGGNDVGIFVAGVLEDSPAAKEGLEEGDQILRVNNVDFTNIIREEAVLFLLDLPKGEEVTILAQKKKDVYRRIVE
Sequence of TJP2_1, Q9UDY2 (Q9UDY2 24-128): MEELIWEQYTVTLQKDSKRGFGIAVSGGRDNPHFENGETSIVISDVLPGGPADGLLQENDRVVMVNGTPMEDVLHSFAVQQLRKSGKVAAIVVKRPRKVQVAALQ
Sequence of IL16_4, Q14005 (Q14005 1229-1329): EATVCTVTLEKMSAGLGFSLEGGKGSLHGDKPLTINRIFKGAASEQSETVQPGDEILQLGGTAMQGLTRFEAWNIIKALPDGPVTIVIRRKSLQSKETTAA
Sequence of Inadl_6, Q8NI35 (Q8NI35 1058-1167): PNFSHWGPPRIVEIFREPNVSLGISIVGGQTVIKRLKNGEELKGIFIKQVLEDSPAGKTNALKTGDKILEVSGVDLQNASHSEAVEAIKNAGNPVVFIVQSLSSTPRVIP

RDPPAEWTRV [PTPN18, Q99952]
pKd [1, 29]: 3.61 | pKd [2, 29]: 4.26 | pKd [3, 29]: below the threshold | pKd [4, 29]: below the threshold | pKd [5, 29]: 4 | pKd [6, 29]: 4.3 | pKd [7, 29]: below the threshold | pKd [8, 29]: below the threshold | pKd [9, 29]: below the threshold | pKd [10, 29]: 3.6 | pKd [11, 29]: below the threshold | pKd [12, 29]: below the threshold | pKd [13, 29]: 3.66 | pKd [14, 29]: 4.02 | pKd [15, 29]: below the threshold | pKd [16, 29]: 3.73 | pKd [17, 29]: 4.46 | pKd [18, 29]: below the threshold | pKd [19, 29]: below the threshold | pKd [20, 29]: below the threshold | pKd [21, 29]: 4.18 | pKd [22, 29]: below the threshold | pKd [23, 29]: below the threshold | pKd [24, 29]: below the threshold | pKd [25, 29]: below the threshold | pKd [26, 29]: below the threshold | pKd [27, 29]: 3.6 | pKd [28, 29]: 4.06

TESNLQTSSC [CGN, Q9P2M7]
pKd [1, 30]: below the threshold | pKd [2, 30]: below the threshold | pKd [3, 30]: below the threshold | pKd [4, 30]: below the threshold | pKd [5, 30]: below the threshold | pKd [6, 30]: below the threshold | pKd [7, 30]: below the threshold | pKd [8, 30]: below the threshold | pKd [9, 30]: below the threshold | pKd [10, 30]: below the threshold | pKd [11, 30]: below the threshold | pKd [12, 30]: below the threshold | pKd [13, 30]: below the threshold | pKd [14, 30]: below the threshold | pKd [15, 30]: below the threshold | pKd [16, 30]: 3.47 | pKd [17, 30]: below the threshold | pKd [18, 30]: below the threshold | pKd [19, 30]: below the threshold | pKd [20, 30]: below the threshold | pKd [21, 30]: 4.1 | pKd [22, 30]: below the threshold | pKd [23, 30]: below the threshold | pKd [24, 30]: below the threshold | pKd [25, 30]: below the threshold | pKd [26, 30]: below the threshold | pKd [27, 30]: below the threshold | pKd [28, 30]: below the threshold

RSSGGDDFWF [KCNV1, Q6PIU1]
pKd [1, 29]: below the threshold | pKd [2, 29]: below the threshold | pKd [3, 29]: below the threshold | pKd [4, 29]: below the threshold | pKd [5, 29]: below the threshold | pKd [6, 29]: below the threshold | pKd [7, 29]: below the threshold | pKd [8, 29]: below the threshold | pKd [9, 29]: 4.37 | pKd [10, 29]: below the threshold | pKd [11, 29]: below the threshold | pKd [12, 29]: below the threshold | pKd [13, 29]: below the threshold | pKd [14, 29]: below the threshold | pKd [15, 29]: 3.7 | pKd [16, 29]: below the threshold | pKd [17, 29]: below the threshold | pKd [18, 29]: below the threshold | pKd [19, 29]: below the threshold | pKd [20, 29]: below the threshold | pKd [21, 29]: 4.37 | pKd [22, 29]: below the threshold | pKd [23, 29]: 4.29 | pKd [24, 29]: below the threshold | pKd [25, 29]: 4.47 | pKd [26, 29]: below the threshold | pKd [27, 29]: below the threshold | pKd [28, 29]: below the threshold

GTGYDRKDYV [CLDN3, O15551]
pKd [1, 29]: below the threshold | pKd [2, 29]: 3.63 | pKd [3, 29]: below the threshold | pKd [4, 29]: below the threshold | pKd [5, 29]: below the threshold | pKd [6, 29]: below the threshold | pKd [7, 29]: 3.53 | pKd [8, 29]: below the threshold | pKd [9, 29]: 4.17 | pKd [10, 29]: 3.73 | pKd [11, 29]: below the threshold | pKd [12, 29]: below the threshold | pKd [13, 29]: 3.93 | pKd [14, 29]: below the threshold | pKd [15, 29]: below the threshold | pKd [16, 29]: below the threshold | pKd [17, 29]: 3.48 | pKd [18, 29]: below the threshold | pKd [19, 29]: below the threshold | pKd [20, 29]: below the threshold | pKd [21, 29]: 4.95 | pKd [22, 29]: below the threshold | pKd [23, 29]: below the threshold | pKd [24, 29]: below the threshold | pKd [25, 29]: below the threshold | pKd [26, 29]: 3.54 | pKd [27, 29]: 3.94 | pKd [28, 29]: below the threshold
